Test results as given in publication PMC2367712.
Where two headings read alike, the source gives them in different places.

What was measured:
Experiment in all cases: EMSA
Lsr2 [1] = target: T1, Lsr2 (Mycobacterium tuberculosis, UniProt P9WIP7 1-112)
Lsr2 [2] = target: T1, Lsr2; remark: listed apart in the source
Lsr2 [3] = target: T1, Lsr2; remark: listed apart in the source

Row | Binder | binding result (Lsr2 [1]) | further results
1 | lmo 26 bp fragment 1 (46% AT) (dsDNA) DNA 1: TGCTGGTCAATTAGGCACTGCGTGAC DNA 2: GTCACGCAGTGCCTAATTGACCAGCA | binds | 
2 | C42 (dsDNA) DNA 1: AAAAATCTCTAAAAAATCTCTAAAAATCTCTAAAAAATCTCT DNA 2: AGAGATTTTTTAGAGATTTTTAGAGATTTTTTAGAGATTTTT |  | binding result (Lsr2 [2]): binds
3 | lmo 26 bp fragment 2 (54% AT) (dsDNA) DNA 1: AATTTATCGAGTCGCACAACCGGATC DNA 2: GATCCGGTTGTGCGACTCGATAAATT | binds | 
4 | lmo 26 bp fragment 3 (65% AT) (dsDNA) DNA 1: ATCCATCCGTTATTTACGTCAATTTA DNA 2: TAAATTGACGTAAATAACGGATGGAT | binds | 
5 | lmo promoter 104 bp (dsDNA) DNA 1: TGCTGGTCAATTAGGCACTGCGTGACAATTTATCGAGTCGCACAACCGGATCATCCATCCGTTATTTACGTCAATTTAAACGGATGATCTATCCGCTGGCTCCC DNA 2: GGGAGCCAGCGGATAGATCATCCGTTTAAATTGACGTAAATAACGGATGGATGATCCGGTTGTGCGACTCGATAAATTGTCACGCAGTGCCTAATTGACCAGCA |  | binding result (Lsr2 [3]): binds
